One may read the stoichiometry N as a count of units in the complex or per binding partner.

Data on three substances can be found in PMC7414852.

Common to all, as to assay: cryo-EM structure
Experiment [1] has as its target Trypsin-activated Vip3Aa16 toxin (cleaved at K198, both fragments kept together) (Bacillus thuringiensis).
The target in experiment [2] is Vip3Aa16 N-terminal trypsin fragment (domain I, to K198) (Bacillus thuringiensis).
The target of experiment [3] is Vip3Aa16 protoxin (Vegetative Insecticidal Protein 3Aa from Bacillus thuringiensis), residues 10-789 (Bacillus thuringiensis).

As to “Trypsin-activated Vip3Aa16 toxin (cleaved at K198, both fragments kept together) (complex)”, the stoichiometry N in experiment [1] came to 4.

As to “Vip3Aa16 N-terminal trypsin fragment (domain I, to K198) (domain or fragment)”, the stoichiometry N in experiment [2] was 4.

For the substance “Vip3Aa16 protoxin (Vegetative Insecticidal Protein 3Aa from Bacillus thuringiensis), residues 10-789 (natural protein)”, the stoichiometry N in experiment [3] turned out to be 4.
